The series can be described thus: yeast display, Sf9 membrane polyspecificity reagent, FACS + sequencing; frameworks hold sequencing errors. Summed up:
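Sorting gates, low and high (top ~1%), were placed on anti-HA fluorescence to track expression and on streptavidin fluorescence to track reagent binding. A clone's polyreactivity label is taken from the gate it came out of. The reagent was 10% biotinylated, detergent-solubilized Sf9 membrane, applied for 1 hour at 4 °C to galactose-induced yeast display cells.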
With “QVQLVESGGGIVQAGGSLRLICAASGSNFNRYAMGWYRQAPGKERQLVARITNRSGNTYYADSVKGRFTISRDIAKNTVYLQMTSLKPEDTAVYYCAATKSLGRYIMEYWGLGTQVTVSS”, the “polyreactivity (PSR sort gate)” value is “low polyreactivity”.

“QVQLVESGGGIVQAGGSLRLICDASGLIFTLYAMGWYRQAPGKETELVAAIDDGGRTYYADSVKGRFTISRDNAKNTVYLQMNSMIPEDTAVYYGAAVWLAVYSVWTDHHYDYWGQGTQVTVSS”: the “polyreactivity (PSR sort gate)” value is given as “low polyreactivity”.

“QVQLVESGGGIVQAGGSLRLISAASGFIFAIYAMGWYRQAPGNERELVAGISSSGSTTRYADSVKVRFTISRDYAKYTVYLQLISLIPEDTAVYDCAADGYPGDDYWGQGTQVTVSS”: the “polyreactivity (PSR sort gate)” value is given as “high polyreactivity”.

Consider “QVQLVESGGGIVQAGGSLRLSCAASGFIFNTNAMGWYRQAPGKERELVAGISRSGVRTYYADSVKGRFTISRDNAKNTVYLQMNSLKPEDTAVYYCAATSLPRYYYWGQGTQVTVSS”, for which the “polyreactivity (PSR sort gate)” value was “low polyreactivity”.

“QVQLVESGGGIVQAGGSLRLSCAASGFIFRYYVMGSYRQAPGKERELVASISRSGTSTYYADSVKGRFTISRDNAKNTVYLQMNSLKPEDTAVYYCAKGVGRGFGSATGYYWGQGTQVTVSS”: the “polyreactivity (PSR sort gate)” value was “high polyreactivity”.

As for “QVQLVESGGGIVQAGGSLRLSCAASGFTFFIYTMGWYRQAPGKERELVAAIRSRTGSTYYADSVKGRITISRDNAKNTVYLQMNSLKPDDTAVYYCAATRVRSASYSIEYDYWGQGTQVTVSS”, the “polyreactivity (PSR sort gate)” value is given as “high polyreactivity”.

For the sequence “QVQLVESGGGIVQAGGSLRLSCAASGFTFPVYAMGWYRQAPGKEREFVAAITYIGGSTYADSVKGRFTISRDNAKNTVYLQMNSLKPEDTAVYYCAADIITEYWADYLGYLEYDYWGQGTQVTVSS”, the “polyreactivity (PSR sort gate)” value is recorded as “low polyreactivity”.

As to “QVQLVESGGGIVQAGGSLRLSCAASGFTFWRYARGWYRQAPGKERELVAGISSGGSTNYADSVKGRFTISRDNAKNTVYLQMNSLKPEDTAVYYCAARGNYFYGIYGYWGQGTQVTVSS”, the “polyreactivity (PSR sort gate)” value is reported as “low polyreactivity”.

With “QVQLVESGGGIVQAGGSLRLSCAASGFTFWYYAMGWYRQAPGKERELVAVINTSGGSTYADSVKGRFTISRDNAKNTVYLQMNSLKPEDTAVYYCNKDFIYGYDAASYRPEYDYWGQGTQVTVSS”, the “polyreactivity (PSR sort gate)” value is “low polyreactivity”.

Turning to “QVQLVESGGGIVQAGGSLRLSCAASGFTILRYVMGWYRQAPGKERELVAAISYSGGRTYYADSVKGRFTISRDNAKHTVYLHMNSLKPEDPAVYYCAAARPFGYPPVMKYDYWGQVTQVTVSS”, the “polyreactivity (PSR sort gate)” value was “high polyreactivity”.

Turning to “QVQLVESGGGIVQAGGSLRLSCAASGFTLWLNAMGWYRQAPGKERELVAAITTSDDGTYYADSVKGRFTISRDNAKNTVYLQMNSLKPEDTAVYYCASDYYSVLYDYWGQGTQLTVSS”, the “polyreactivity (PSR sort gate)” value was “low polyreactivity”.

As to “QVQLVESGGGIVQAGGSLRLSCAASGFTYARYAKGWYRQAPGKERELVAAITRRGGSTHYADSVKGRFTISRDNAKNTVYLQMTSLKPEDTAVDYCAAYSLHNYLSEYGDWGQGTQVTVSS”, the “polyreactivity (PSR sort gate)” value is on record as “high polyreactivity”.

As for “QVQLVESGGGIVQAGGSLRLSCAASGIIFSIYGMGWYRQAPGKERELVAAINSGSSTNYADSVKGRFTISRDNAKNTVYLQMNSLKREDTAVYYCNADYRYPQYYHRTWIRYDYWGQGTQVTVSS”, the “polyreactivity (PSR sort gate)” value is recorded as “high polyreactivity”.

In the case of “QVQLVESGGGIVQAGGSLRLSCAASGLIFSRYTMGWYRQAPAKEMELVAAISGRGTSTYYAYSVKGRFTISRDNAKNTVYLLMNSLKPEDTAVYYCATSKSYSAFDYWGQGTQVTVSS”, the “polyreactivity (PSR sort gate)” value is “high polyreactivity”.

Turning to “QVQLVESGGGIVQAGGSLRLSCAASGLIFYTYAMGWYRQAPGKEREIVAAISRRGGSTYYADSVKGRFTISRDNAKNTVYLQMNSLKPEDTAVYYCNARGGRYGTYSHYGYWGQGTQVTVSS”, the “polyreactivity (PSR sort gate)” value was “high polyreactivity”.

“QVQLVESGGGIVQAGGSLRLSCAASGLTFGFNAKGWYTQAPGQERELVATIDLNGGSTTYADSVKGRFTLSRDNAKNTVYLQMNSLKPEDTAVYYCAAQTGFVSHFFSHYDYGGQGTQVTVSS”: the “polyreactivity (PSR sort gate)” value is “low polyreactivity”.

“QVQLVESGGGIVQAGGSLRLSCAASGLTFVNYAMGSYRQAPGKERELVAAITVNGGRTYYADSVKGRFTISRDNAKNTVYLQMFSLKPEDTAVYFCAAVYYRHGYTYSSDYWGQGTQVTVSS”: the “polyreactivity (PSR sort gate)” value is reported as “high polyreactivity”.

In the case of “QVQLVESGGGIVQAGGSLRLSCAASGNIFPYYDMGWYRPAPGKERELVAAITSSASGTYYADSVKGRFTISRDNAKNTVYLQMNSLKPEDTAVYYCAAGVFFFTFDYWGQGTQVTVSS”, the “polyreactivity (PSR sort gate)” value is on record as “low polyreactivity”.

“QVQLVESGGGIVQAGGSLRLSCAASGNTFNFYAMGWYRQAPGKERELVASITSGGGTNYADSVKGRFTISRDNAKNTVYLQMNSLKPEDTAVYYCADQFYYHFRYHFDWGLGTQVTVSS”: the “polyreactivity (PSR sort gate)” value is reported as “low polyreactivity”.

With “QVQLVESGGGIVQAGGSLRLSCAASGNTYRWYAMGWNIQAPGKEREFVADITVRGGSTYYADSVKGRFTISRDNAKNTVYLQMNSLKPEDTAVYYCAADYRYGGSRGYRYDYWGQGTQVTVSS”, the “polyreactivity (PSR sort gate)” value is given as “low polyreactivity”.

Turning to “QVQLVESGGGIVQAGGSLRLSCAASGRIFGGNSMGWYRQAPGKERELVAAITTSGGSTYYADSVKGRFTISRDNAKNTVYLQMNSLKPEDTAVYSCAAGIGDSYWYRRYGYWGQGTQVTVSS”, the “polyreactivity (PSR sort gate)” value is reported as “low polyreactivity”.

Turning to “QVQLVESGGGIVQAGGSLRLSCAASGRIFGHYAMGWYRPAPGKERELVAAITKNGDSTYYADSVKGRFTISRDNAKNRVYLPMNSLKPEDTAVYYCNAVYDLVCGEGYDSWGQGTQVTVSS”, the “polyreactivity (PSR sort gate)” value was “low polyreactivity”.

On to “QVQLVESGGGIVQAGGSLRLSCAASGRIFGWYAMGWYREAPGKERELVAAISSGGRTKYADSVKGRFTISRDNAKNTVYLQMNSLKAEDTAVYYCNARRSYLPYKFGYDYWGQGTQVTVSS”, for which the “polyreactivity (PSR sort gate)” value is “low polyreactivity”.

As for “QVQLVESGGGIVQAGGSLRLSCAASGRIFKYNAMGWYRQAPGKERELVAAISWSDGSTYYADSVKGRFTISRDNAKNTVYLQMNSLKPEDTAVYYCAARGYGFPELDYWGQGTQVTVSS”, the “polyreactivity (PSR sort gate)” value is given as “high polyreactivity”.

Take “QVQLVESGGGIVQAGGSLRLSCAASGRIFQFYAMGWYRQAPGKERELVAGITTSGGSTYYADSVKGRFTISRDNAKNTVYLQMNSLKPEDTAVYYCAASRHFARHRGYYFRYDYWGQGTQVTVSS”: the “polyreactivity (PSR sort gate)” value was “high polyreactivity”.

As for “QVQLVESGGGIVQAGGSLRLSCAASGRIFQYYAMGWYRQAPGKERELVASISGRGGRTYYADSVKGRFTISRDNAKNTVYLQMNSLKPEDTAVYYCNAVFSTIRYIRSYNYWGQGTQVTVSS”, the “polyreactivity (PSR sort gate)” value is on record as “high polyreactivity”.

Regarding “QVQLVESGGGIVQAGGSLRLSCAASGRIIGYYAMGWYIQAPGKERELVARISSSGGSTYYADSVKGRFTISRDNAKNTVYLQMNSLKPEVTAVYYCNTASNRFPGWRAEFDYWGQGTQVTVSS”, the “polyreactivity (PSR sort gate)” value is “low polyreactivity”.

Take “QVQLVESGGGIVQAGGSLRLSCAASGRTFAVYAMGWYRQAPGKERELVAAINSSGRTDYADSVKGRFTISRDNAKNTVYLQMNSLKPEDTAVYYCNADFYFRRYRYRYNYWGQGTQVTVSS”: the “polyreactivity (PSR sort gate)” value is “high polyreactivity”.

As for “QVQLVESGGGIVQAGGSLRLSCAASGRTFRINGMGWYRQAPGKERELIAAISDGGSTNYADSVKGRFTISRDNAKNTVYLQMNSLKPEDTAVYYCAVDPYYFFYDEWLGDPNFDYWGQGTQVTVSS”, the “polyreactivity (PSR sort gate)” value was “low polyreactivity”.

Turning to “QVQLVESGGGIVQAGGSLRLSCAASGRTFRRYVMGWYRQAPGKERELVAAITVSGGNTYYADSVKGSFTISRDNAKNTVYLQMNSLKPEDTAVYYCNADAGAIYYRRYHFYYWGQGTQVTVSS”, the “polyreactivity (PSR sort gate)” value is given as “low polyreactivity”.

Take “QVQLVESGGGIVQAGGSLRLSCAASGRTFRSNVMGWYRQAPGKERELVAAISWRGGNTHYADSVKGRFTISRDNAKNTVYLQMNSLKREDTAVFYCAARVTSRRDPDQIHGYWGQGTQVTVSS”: the “polyreactivity (PSR sort gate)” value was “high polyreactivity”.

Regarding “QVQLVESGGGIVQAGGSLRLSCAASGRTFRYNTMGSYRQAPGKERELVAAINSRGGSTYYADSVKGRFTISRDNAKNTVYLQMNSLKPEDTAVYYCAALTRYNTASGYDYWGQGTQVTVSS”, the “polyreactivity (PSR sort gate)” value is reported as “high polyreactivity”.

Take “QVQLVESGGGIVQAGGSLRLSCAASGRTFSSYARGWYRQAPGKERELVAAISSDGVDTYYADSVKGRFTISRDNAKNTVYLQMNSLKPEDTAVYYCNAEEGGPEYAYSYYRMDYWGQGTQVTVSS”: the “polyreactivity (PSR sort gate)” value is given as “low polyreactivity”.

As to “QVQLVESGGGIVQAGGSLRLSCAASGRTFYANAMGWYRQAPGKERELVAAISTVGDGTYYADSVKGRFTISRDNAKYTVYLQMNSLKPEDTAVYYCAVRHRASGILYDYWRQGTQVTVSS”, the “polyreactivity (PSR sort gate)” value is “low polyreactivity”.

For “QVQLVESGGGIVQAGGSLRLSCAASGRTFYSSAMGWYRQAPGKERALVAAITSDGGTYYADSVKGRFTISRDNAKNTVYLQMNSLKPEDTAVYYCNTRDLYGYPQVTGYDYWGQGSQVTVSS”, the “polyreactivity (PSR sort gate)” value was “low polyreactivity”.

“QVQLVESGGGIVQAGGSLRLSCAASGRTLQRNAMGWYRQAPGKERELVAAISWSGASTYYADSVKGRFTISRDNAKNTVYLQMNSLKPEDTAVYYCAATYIDRGNIYDYWGQGTQVTVSS”: the “polyreactivity (PSR sort gate)” value is listed as “high polyreactivity”.

“QVQLVESGGGIVQAGGSLRLSCAASGSIFDVYAMGWYRQAPGKERELVAAITWRGGNTYYADSVKGRFTISRDNAKNTVYLQMNSLKPEDTAVYYCNALHRIRYTPSSRYDYWGQGTQVTVSS”: the “polyreactivity (PSR sort gate)” value was “low polyreactivity”.

In the case of “QVQLVESGGGIVQAGGSLRLSCAASGSIFHYYAMGWYRQAPGKESELVAAISWSGGRTNYADSVKGRFTISRDNAKNTVYLQMNSLKPEDTAVYYCAAAERSFSGGGKIGKYYYWGQGTQVTVSS”, the “polyreactivity (PSR sort gate)” value was “high polyreactivity”.

Regarding “QVQLVESGGGIVQAGGSLRLSCAASGSIFLYYAMGWYRQAPGKERELVAPIRGSGSSTYYADSVKGRFTISRDNAKNTVYLQMNSLKPEDTAVYYCSAKGYRWFRHGGYYFKFDYWGQGTQVTVSS”, the “polyreactivity (PSR sort gate)” value is given as “high polyreactivity”.

As for “QVQLVESGGGIVQAGGSLRLSCAASGSIFPDNAMGWYRQAPGKERELVAAIDKGTGSTNYADSVKGRFTISRDNAKNTVYLQMNSLKPEDTAVYYDYWGQGTQVSVSS”, the “polyreactivity (PSR sort gate)” value is reported as “low polyreactivity”.
